# Laboratory results published in publication PMC2748308.
# Tests used:
# Assay in all cases: purified protein
# Details in all cases: 50 mM Hepes pH 8.0
# purified protein [1] = substrate: CC(C)C[C@H](NC(=O)[C@H](C)N)C(=O)O
# purified protein [2] = substrate: O=CN[C@@H](Cc1ccccc1)C(=O)O
# purified protein [3] = substrate: CSCC[C@H](NC=O)C(=O)O
# purified protein [4] = substrate: CC[C@H](C)[C@H](NC=O)C(=O)O
# purified protein [5] = substrate: CC(C)C[C@H](NC=O)C(=O)O
# purified protein [6] = substrate: CC(C)[C@H](NC=O)C(=O)O
# purified protein [7] = substrate: O=CN[C@@H](Cc1ccc(O)cc1)C(=O)O
# purified protein [8] = substrate: CC(=O)N[C@@H](Cc1ccccc1)C(=O)O
# purified protein [9] = substrate: CC[C@H](C)[C@H](NC(C)=O)C(=O)O
# purified protein [10] = substrate: CC(=O)N[C@@H](Cc1ccc(O)cc1)C(=O)O
# purified protein [11] = substrate: CC(=O)N[C@@H](CC(C)C)C(=O)O
# purified protein [12] = substrate: CC(C)C[C@H](NC(=O)[C@@H](N)CC(=O)O)C(=O)O
# purified protein [13] = substrate: C[C@H](N)C(=O)N[C@@H](Cc1ccccc1)C(=O)O
protein,measurement,setting,value
Cc0300 (Caulobacter vibrioides CB15) (protein) QATFVQAGRLLADPATGKVEIAKTLVLENGKVTRILDGYVAEPGGKVVDLKDSFVLPGLIDSHVHLTGQQNPNGRLQAVTQSPSDSAMVGAGFARKTLMAGFTTVANLGANSQAIFALREGVKRGDVAGPRILASGSSISVHGGHGDINGYSEDVMHALRPESVCSGADDCRRAVREQIWLGADLIKITATGGVLSNTAAGLAKQFSDAELAAIVESAHSMGRKVTAHAHGGDGINAFLKAGGDSIEHGTYLDNEGIALMKKSGAYLVPTLMAGDFVYRIASGPNNYFTPAQTAKALEAGPKMLDMVRRAHADGVKVAFGTDSGVSAHGDNAGEFALLVKAGMTPLEAIQTATVNAADHFSLSNEIGSLTPGKAADLIAVKGDPLKDVTELQRVTSVIKGGVVYK,Km,purified protein [1],350 ± 40 µM
same,kcat,purified protein [1],37 ± 2 s⁻¹
same,kcat/Km,purified protein [1],110000 ± 10000 M⁻¹ s⁻¹
same,Km,purified protein [2],260 ± 30 µM
same,kcat,purified protein [2],52 ± 2 s⁻¹
same,kcat/Km,purified protein [2],200000 ± 20000 M⁻¹ s⁻¹
same,Km,purified protein [3],410 ± 30 µM
same,kcat,purified protein [3],12 ± 1 s⁻¹
same,kcat/Km,purified protein [3],29000 ± 2000 M⁻¹ s⁻¹
same,Km,purified protein [4],70 ± 10 µM
same,kcat,purified protein [4],20 ± 1 s⁻¹
same,kcat/Km,purified protein [4],290000 ± 40000 M⁻¹ s⁻¹
same,Km,purified protein [5],130 ± 10 µM
same,kcat,purified protein [5],39 ± 2 s⁻¹
same,kcat/Km,purified protein [5],300000 ± 30000 M⁻¹ s⁻¹
same,Km,purified protein [6],80 ± 10 µM
same,kcat,purified protein [6],18 ± 1 s⁻¹
same,kcat/Km,purified protein [6],220000 ± 30000 M⁻¹ s⁻¹
same,Km,purified protein [7],90 ± 10 µM
same,kcat,purified protein [7],33 ± 1 s⁻¹
same,kcat/Km,purified protein [7],390000 ± 40000 M⁻¹ s⁻¹
same,Km,purified protein [8],310 ± 30 µM
same,kcat,purified protein [8],5.3 ± 0.2 s⁻¹
same,kcat/Km,purified protein [8],17000 ± 2000 M⁻¹ s⁻¹
same,Km,purified protein [9],140 ± 20 µM
same,kcat,purified protein [9],2.6 ± 0.1 s⁻¹
same,kcat/Km,purified protein [9],19000 ± 2000 M⁻¹ s⁻¹
same,Km,purified protein [10],170 ± 20 µM
same,kcat,purified protein [10],4.6 ± 0.2 s⁻¹
same,kcat/Km,purified protein [10],27000 ± 3000 M⁻¹ s⁻¹
same,Km,purified protein [11],150 ± 30 µM
same,kcat,purified protein [11],2.5 ± 0.1 s⁻¹
same,kcat/Km,purified protein [11],16000 ± 3000 M⁻¹ s⁻¹
same,Km,purified protein [12],220 ± 40 µM
same,kcat,purified protein [12],29 ± 1 s⁻¹
same,kcat/Km,purified protein [12],130000 ± 20000 M⁻¹ s⁻¹
same,Km,purified protein [13],660 ± 50 µM
same,kcat,purified protein [13],19 ± 1 s⁻¹
same,kcat/Km,purified protein [13],29000 ± 3000 M⁻¹ s⁻¹
Sgx9355e (Alteromonas macleodii) (protein) MSLDVDSKTLIHAGKLIDGKSDQVQSRISIVIDGNIISDIKKGFISSNDFEDYIDLRDHTVLPGLMDMHVHFGQEYQSKAQAPIKVEREMQAILATQHAYVTFKSGFTTVRQVGDSGLVAISLRDAINSGKLAGPRIFAAGKTIATTGGHADPTNGKAVDDYDYPVPEQGVVNGPYEVYAAVRQRYKDGADGIKITVTGGVLSVAKSGQNPQFTQEEVDAVVSAAKDYGMWVAVHAHGAEGMKRAIKAGVDSIEHGTFMDLEAMDLMIENGTYYVPTISAGEFVAEKSKIDNFFPEIVRPKAASVGPQISDTFRKAYEKGVKIAFGTDAGVQKHGTNWKEFVYMVENGMPAMKAIQSATMETAKLLRIEDKLGSIESGKLADLIAVKGNPIEDISVLENVDVVIKDGLLYE,Km,purified protein [1],250 ± 30 µM
same,kcat,purified protein [1],0.34 ± 0.01 s⁻¹
same,kcat/Km,purified protein [1],1300 ± 200 M⁻¹ s⁻¹
same,Km,purified protein [5],260 ± 40 µM
same,kcat,purified protein [5],0.072 ± 0.003 s⁻¹
same,kcat/Km,purified protein [5],280 ± 40 M⁻¹ s⁻¹
same,Km,purified protein [11],110 ± 10 µM
same,kcat,purified protein [11],0.032 ± 0.01 s⁻¹
same,Km,purified protein [13],70 ± 10 µM
same,kcat,purified protein [13],0.41 ± 0.01 s⁻¹
same,kcat/Km,purified protein [13],5800 ± 600 M⁻¹ s⁻¹
